Results as given in publication PMC3928310, “Model of a DNA-Protein Complex of the Architectural Monomeric Protein MC1 from Euryarchaea”.

Tests used:
Experiment in all cases: EMSA; EMSA: 10 mM Tris-HCl pH 7.5, 150 mM NaCl, 1 mM EDTA, 15 ug/ml BSA, 8% glycerol, 15 min at 20 C, 0.1 nM DNA, TBE gel; NMR PRE: 10 mM phosphate pH 6, 100 mM NaCl, 10% D2O
Conditions in all cases: protein: recombinant; label: 5'-32P on one strand; blunt
MC1 R25Q = target: T1, MC1 R25Q (Methanosarcina thermophila CHTI55, UniProt P12770 1-93, R25Q)
T1 sequence: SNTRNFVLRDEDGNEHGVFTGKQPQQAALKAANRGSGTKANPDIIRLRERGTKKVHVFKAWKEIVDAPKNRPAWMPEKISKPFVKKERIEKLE

MC1 R71A = target: T2, MC1 R71A (Methanosarcina thermophila CHTI55, UniProt P12770 1-93, R71A)
T2 sequence: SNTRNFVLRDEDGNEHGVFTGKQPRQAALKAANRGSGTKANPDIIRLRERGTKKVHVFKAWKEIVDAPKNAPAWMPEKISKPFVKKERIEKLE

MC1 I89A = target: T3, MC1 I89A (Methanosarcina thermophila CHTI55, UniProt P12770 1-93, I89A)
T3 sequence: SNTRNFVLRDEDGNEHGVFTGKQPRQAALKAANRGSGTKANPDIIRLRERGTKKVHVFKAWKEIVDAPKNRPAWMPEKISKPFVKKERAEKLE

MC1 Q23E = target: T4, MC1 Q23E (Methanosarcina thermophila CHTI55, UniProt P12770 1-93, Q23E)
T4 sequence: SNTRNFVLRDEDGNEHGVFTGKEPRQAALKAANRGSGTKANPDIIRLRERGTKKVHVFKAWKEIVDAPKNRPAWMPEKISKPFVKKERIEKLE

MC1 P72A = target: T5, MC1 P72A (Methanosarcina thermophila CHTI55, UniProt P12770 1-93, P72A)
T5 sequence: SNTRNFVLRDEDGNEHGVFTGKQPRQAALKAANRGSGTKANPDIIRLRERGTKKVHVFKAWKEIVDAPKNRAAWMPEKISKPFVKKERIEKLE

MC1 R25A = target: T6, MC1 R25A (Methanosarcina thermophila CHTI55, UniProt P12770 1-93, R25A)
T6 sequence: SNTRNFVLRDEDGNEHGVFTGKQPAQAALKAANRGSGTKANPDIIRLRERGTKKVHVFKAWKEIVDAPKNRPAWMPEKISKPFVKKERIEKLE

MC1 W74F = target: T7, MC1 W74F (Methanosarcina thermophila CHTI55, UniProt P12770 1-93, W74F)
T7 sequence: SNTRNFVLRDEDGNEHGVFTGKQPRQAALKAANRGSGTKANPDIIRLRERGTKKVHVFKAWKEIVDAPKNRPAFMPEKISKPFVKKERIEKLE

B1: 26 bp EMSA duplex (dsDNA)
DNA 1: GCCTCAAAAACACACACCCCCGACAG
DNA 2: CTGTCGGGGGTGTGTGTTTTTGAGGC
B1 gave a Kd (MC1 R25Q) of 552 ± 34 nM, a Kd (MC1 R71A) of 3.6 ± 0.2 nM and a Kd (MC1 I89A) of 15.4 ± 2 nM. The Kd (MC1 Q23E) was 9.05 ± 2 nM, the Kd (MC1 P72A) was 4.2 ± 0.5 nM and the Kd (MC1 R25A) was 161 ± 14 nM. For the same binder, the Kd (MC1 W74F) was 8.4 ± 1 nM.
